Reference: publication PMC8202330, “Phosphorylation of the LIR Domain of SCOC Modulates ATG8 Binding Affinity and Specificity” (Journal of Molecular Biology, 2021)

Columns and labels:
[1] = biological target: GABARAP (UniProt O95166); assay: bio-layer interferometry, immobilised biotin peptide; settings: reference: unphosphorylated WT peptide
[2] = biological target: GABARAPL1 (UniProt Q9H0R8); assay: as above; settings: reference: unphosphorylated WT peptide
[3] = biological target: GABARAPL2 (UniProt P60520); assay: as above; settings: reference: unphosphorylated WT peptide
[4] = biological target: LC3A (UniProt Q9H492); assay: as above; settings: reference: unphosphorylated WT peptide
[5] = biological target: LC3B (UniProt Q9GZQ8); assay: as above; settings: reference: unphosphorylated WT peptide
[6] = biological target: LC3C (UniProt Q9BXW4); assay: as above; settings: reference: unphosphorylated WT peptide
[7] = biological target: SCOC aa 11–25 LIR peptide (human); assay: BLI; biotinylated LIR peptide immobilized on streptavidin biosensor, ATG8 in solution; 25 mM Tris pH 7.5, 150 mM NaCl, 0.5 mM TCEP, 0.1% Tween20, 1 mg/ml BSA; 25 °C; Kd from response against concentration
[8] = biological target: SCOC aa 6–18 LIR peptide (human); assay: as above
[9] = biological target: SCOC pS12 LIR peptide (human); assay: as above
[10] = biological target: SCOC LIR peptide phosphorylated at S12 and S18 (BLI) (human); assay: as above

LC3C, sequence (Q9BXW4 whole entry, looked up, the tested form may be a part): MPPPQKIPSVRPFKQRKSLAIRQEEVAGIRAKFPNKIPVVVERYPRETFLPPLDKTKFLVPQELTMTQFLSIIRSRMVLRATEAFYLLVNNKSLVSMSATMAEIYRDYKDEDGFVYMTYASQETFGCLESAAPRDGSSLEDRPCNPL
GABARAPL1, sequence (Q9H0R8 whole entry, looked up): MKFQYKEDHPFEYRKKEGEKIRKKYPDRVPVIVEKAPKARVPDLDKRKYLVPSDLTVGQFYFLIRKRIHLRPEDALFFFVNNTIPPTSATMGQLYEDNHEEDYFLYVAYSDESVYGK
GABARAPL1 (for BLI), sequence (Q9H0R8 whole entry): as the sequence (Q9H0R8 whole entry, looked up) above
GABARAP, sequence (O95166 whole entry, looked up): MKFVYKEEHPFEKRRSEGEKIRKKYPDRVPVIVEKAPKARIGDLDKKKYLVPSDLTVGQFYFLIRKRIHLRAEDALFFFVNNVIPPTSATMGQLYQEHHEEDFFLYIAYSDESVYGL
GABARAPL2, sequence (P60520 whole entry, looked up): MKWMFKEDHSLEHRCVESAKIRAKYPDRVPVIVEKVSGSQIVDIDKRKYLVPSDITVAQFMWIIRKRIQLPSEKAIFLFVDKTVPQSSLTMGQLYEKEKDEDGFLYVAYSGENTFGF
SCOC pS12 LIR peptide (human), sequence (peptide, as listed by the source): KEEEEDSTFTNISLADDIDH
LC3C (for BLI), sequence (Q9BXW4 1-126): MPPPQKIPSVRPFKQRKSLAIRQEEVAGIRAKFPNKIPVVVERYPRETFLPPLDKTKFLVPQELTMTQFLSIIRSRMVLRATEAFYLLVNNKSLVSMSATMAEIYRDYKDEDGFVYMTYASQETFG

## SCOC (isoform 3) LIR domain, 6-25 (from UniProt Q9UIL1-2) pS12/pS18 peptide
[1]; sites S12,S18
  fold change: stronger
[2]; sites S12,S18
  fold change: stronger
[3]; sites S12,S18
  fold change: stronger
[4]; sites S12,S18
  fold change: stronger
[5]; sites S12,S18
  fold change: stronger
[6]; sites S12,S18
  fold change: stronger

## SCOC (isoform 3) LIR domain, 6-25 (from UniProt Q9UIL1-2) pT15 peptide
[1]; sites T15
  fold change: same
[2]; sites T15
  fold change: same
[3]; sites T15
  fold change: same
[4]; sites T15
  fold change: stronger
[5]; sites T15
  fold change: stronger
[6]; sites T15
  fold change: stronger

## SCOC (isoform 3) LIR domain, 6-25 (from UniProt Q9UIL1-2) pS12/pT15 peptide
[1]; sites S12,T15
  fold change: stronger
[2]; sites S12,T15
  fold change: stronger
[3]; sites S12,T15
  fold change: stronger
[4]; sites S12,T15
  fold change: stronger
[5]; sites S12,T15
  fold change: stronger
[6]; sites S12,T15
  fold change: stronger

## GABARAPL1 (for BLI) (from UniProt Q9H0R8 1-117) (natural protein)
[7]
  fold decrease in affinity against SCOC WT LIR peptide: 104 fold
[8]
  fold decrease in affinity against SCOC WT LIR peptide: 4 fold
[9]
  fold increase in affinity over SCOC WT LIR peptide: 2 fold

## SCOC (isoform 3) LIR domain, 6-25 (from UniProt Q9UIL1-2) pT13 peptide
[1]; sites T13
  binding against the reference: same
[2]; sites T13
  binding against the reference: same
[3]; sites T13
  binding against the reference: same
[5]; sites T13
  binding against the reference: same
[6]; sites T13
  binding against the reference: same

## SCOC (isoform 3) LIR domain, 6-25 (from UniProt Q9UIL1-2) pS18 peptide
[1]; sites S18
  fold change: same
[2]; sites S18
  fold change: same
[3]; sites S18
  fold change: same
[4]; sites S18
  fold change: stronger
[5]; sites S18
  fold change: stronger
[6]; sites S18
  fold change: stronger

## LC3A (for BLI) (from UniProt Q9H492 1-121) (natural protein)
[10]
  fold increase in affinity over SCOC WT LIR peptide: 17 fold

## LC3C (for BLI) (from UniProt Q9BXW4 1-126) (natural protein)
[10]
  fold increase in affinity over SCOC WT LIR peptide: 21 fold

## SCOC (isoform 3) LIR domain, 6-25 (from UniProt Q9UIL1-2) pS12 peptide
[1]; sites S12
  fold change: stronger
[2]; sites S12
  fold change: stronger
[3]; sites S12
  fold change: stronger
[4]; sites S12
  fold change: stronger
[5]; sites S12
  fold change: stronger
[6]; sites S12
  fold change: stronger
